Tests used:
human CD11a (human) = molecular target: T1, human CD11a (human) (UniProt P20701); test: FACScan, Jurkat cells
T1 sequence (looked up): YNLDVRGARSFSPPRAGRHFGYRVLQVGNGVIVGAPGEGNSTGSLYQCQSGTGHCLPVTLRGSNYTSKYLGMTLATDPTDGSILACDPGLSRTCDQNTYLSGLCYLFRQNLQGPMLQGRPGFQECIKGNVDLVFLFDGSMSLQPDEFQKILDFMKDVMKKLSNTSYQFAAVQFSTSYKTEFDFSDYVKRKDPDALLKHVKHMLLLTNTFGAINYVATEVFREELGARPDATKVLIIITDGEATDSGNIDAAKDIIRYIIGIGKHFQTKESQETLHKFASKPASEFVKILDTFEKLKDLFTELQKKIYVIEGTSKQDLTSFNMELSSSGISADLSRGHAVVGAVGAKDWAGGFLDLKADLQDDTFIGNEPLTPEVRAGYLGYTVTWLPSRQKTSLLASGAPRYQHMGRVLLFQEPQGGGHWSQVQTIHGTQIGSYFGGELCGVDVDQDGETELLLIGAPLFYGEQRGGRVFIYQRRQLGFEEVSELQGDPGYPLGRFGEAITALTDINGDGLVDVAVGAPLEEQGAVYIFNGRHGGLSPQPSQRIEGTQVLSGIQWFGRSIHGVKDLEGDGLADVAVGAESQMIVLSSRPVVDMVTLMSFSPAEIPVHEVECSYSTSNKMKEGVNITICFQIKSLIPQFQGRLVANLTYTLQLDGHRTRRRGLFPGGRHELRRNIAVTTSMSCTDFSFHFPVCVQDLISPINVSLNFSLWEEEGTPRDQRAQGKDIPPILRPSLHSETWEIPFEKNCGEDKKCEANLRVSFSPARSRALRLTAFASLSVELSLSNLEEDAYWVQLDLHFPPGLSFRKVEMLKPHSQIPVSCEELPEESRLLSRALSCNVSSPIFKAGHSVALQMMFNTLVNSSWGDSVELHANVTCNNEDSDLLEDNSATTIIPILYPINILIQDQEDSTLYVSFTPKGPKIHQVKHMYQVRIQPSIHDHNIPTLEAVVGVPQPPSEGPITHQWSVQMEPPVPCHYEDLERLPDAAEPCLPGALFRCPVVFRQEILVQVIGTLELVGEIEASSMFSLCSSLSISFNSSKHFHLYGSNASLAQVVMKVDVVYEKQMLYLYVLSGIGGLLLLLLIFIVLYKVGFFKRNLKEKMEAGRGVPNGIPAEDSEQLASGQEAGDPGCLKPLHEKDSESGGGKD

rhesus CD11a (rhesus) = molecular target: T2, rhesus CD11a (rhesus) (UniProt H9Z8N3); test: binding to rhesus peripheral blood lymphocytes
T2 sequence: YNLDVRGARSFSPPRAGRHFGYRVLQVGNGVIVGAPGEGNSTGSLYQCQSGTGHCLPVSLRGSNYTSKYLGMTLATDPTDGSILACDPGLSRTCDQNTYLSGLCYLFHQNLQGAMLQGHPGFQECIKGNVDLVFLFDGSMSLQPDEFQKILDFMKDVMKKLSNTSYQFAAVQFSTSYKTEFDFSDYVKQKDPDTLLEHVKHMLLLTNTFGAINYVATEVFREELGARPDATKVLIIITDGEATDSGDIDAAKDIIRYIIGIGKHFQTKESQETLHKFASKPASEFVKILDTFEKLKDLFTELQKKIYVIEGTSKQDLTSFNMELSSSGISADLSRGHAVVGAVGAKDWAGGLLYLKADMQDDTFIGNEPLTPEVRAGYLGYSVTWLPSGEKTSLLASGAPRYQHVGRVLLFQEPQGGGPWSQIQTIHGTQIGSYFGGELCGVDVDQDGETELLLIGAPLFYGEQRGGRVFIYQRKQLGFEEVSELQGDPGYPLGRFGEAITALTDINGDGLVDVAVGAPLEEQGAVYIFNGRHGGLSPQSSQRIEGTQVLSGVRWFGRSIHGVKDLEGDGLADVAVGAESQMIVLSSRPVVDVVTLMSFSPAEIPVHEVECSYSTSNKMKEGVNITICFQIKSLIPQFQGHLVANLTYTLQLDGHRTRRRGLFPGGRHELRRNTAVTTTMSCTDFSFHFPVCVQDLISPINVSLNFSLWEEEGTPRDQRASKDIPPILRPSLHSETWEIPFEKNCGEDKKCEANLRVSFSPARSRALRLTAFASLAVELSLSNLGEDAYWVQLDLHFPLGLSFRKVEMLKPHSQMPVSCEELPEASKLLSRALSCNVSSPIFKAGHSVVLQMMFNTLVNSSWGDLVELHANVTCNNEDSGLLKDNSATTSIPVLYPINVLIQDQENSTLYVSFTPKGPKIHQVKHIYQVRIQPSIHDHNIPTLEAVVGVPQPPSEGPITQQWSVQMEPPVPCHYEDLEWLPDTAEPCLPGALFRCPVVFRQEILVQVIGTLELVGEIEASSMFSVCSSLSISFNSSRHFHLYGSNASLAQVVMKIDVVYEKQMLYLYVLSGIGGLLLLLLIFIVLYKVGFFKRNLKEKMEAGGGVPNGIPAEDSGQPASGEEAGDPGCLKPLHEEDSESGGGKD

Var.EC50/HuIgG1 EC50 (human CD11a (human)): 4.6
Var.EC50/HuIgG1 EC50 (rhesus CD11a (rhesus)): 5.5
B1: LysH73Arg variant IgG1 (antibody, V domains shown)
VH: EVQLVESGGGLVQPGGSLRLSCAASGYSFTGHWMNWVRQAPGKGLEWVGMIHPSDSETRYNQKFKDRFTISVDRSKNTLYLQMNSLRAEDTAVYYCARGIYFYGTTYFDYWGQGTLVTVSS
VL: DIQMTQSPSSLSASVGDRVTITCRASKTISKYLAWYQQKPGKAPKLLIYSGSTLQSGVPSRFSGSGSGTDFTLTISSLQPEDFATYYCQQHNEYPLTFGQGTKVEIK

Source: patent EP1516629B1
